Where two headings read alike, the source gives them in different places.
Key:
Cyno D2 [1] = molecular target: T1, Cyno D2 (biotinylated (AviTag)); test: bead binding assay: biotinylated TCR-Fc on streptavidin beads, IgG titrated, flow cytometry
T1 construct: also called cynomolgus Gamma/Delta2; Cyno D2/G
T1 delta chain: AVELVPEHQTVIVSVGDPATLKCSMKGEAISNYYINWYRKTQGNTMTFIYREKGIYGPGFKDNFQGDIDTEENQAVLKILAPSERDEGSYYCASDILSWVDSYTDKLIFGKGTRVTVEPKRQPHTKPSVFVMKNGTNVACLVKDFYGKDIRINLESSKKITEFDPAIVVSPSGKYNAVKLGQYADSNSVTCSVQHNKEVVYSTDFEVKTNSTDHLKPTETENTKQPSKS
T1 gamma chain: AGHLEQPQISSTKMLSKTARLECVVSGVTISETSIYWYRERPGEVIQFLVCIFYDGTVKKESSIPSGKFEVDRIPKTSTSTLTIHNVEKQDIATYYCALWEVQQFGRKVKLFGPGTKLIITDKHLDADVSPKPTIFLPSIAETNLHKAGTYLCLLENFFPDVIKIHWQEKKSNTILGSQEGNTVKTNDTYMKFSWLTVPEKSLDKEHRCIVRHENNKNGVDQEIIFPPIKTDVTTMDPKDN

[2] = molecular target: T2, cynomolgus Gamma/Delta1A TCR-Fc fusion protein (cynomolgus monkey, biotinylated in vitro with recombinant BirA (AviTag)); test: bead binding assay (TCR-Fc on streptavidin beads, IgG titrated, flow cytometry); apparent KD, s.d. of triplicates
T2 construct: First chain = delta, second = gamma; also called Cyno D1; cyno D1; not shown: Fc portion of mouse IgG, then AviTag and His6 tag at the C-terminus; Fc portion of mouse IgG

Cyno D2 [3] = molecular target: T1, Cyno D2; test: bead binding assay: biotinylated TCR-Fc on streptavidin beads, IgG titrated, flow cytometry
[4] = molecular target: T2, cynomolgus Gamma/Delta1A TCR-Fc fusion …; test: as above
[5] = molecular target: T2, cynomolgus Gamma/Delta1A TCR-Fc fusion …; test: as above; remark: listed apart in the source
[6] = molecular target: T2, cynomolgus Gamma/Delta1A TCR-Fc fusion …; test: as above; remark: listed apart in the source
[7] = molecular target: T2, cynomolgus Gamma/Delta1A TCR-Fc fusion …; test: as above; remark: listed apart in the source
[8] = molecular target: T3, human Delta1 TCR (Fc fusion protein, Delta1 clone and gamma chain not stated); test: bead binding assay: Fc fusion proteins on streptavidin-coated beads, IgG titrated, flow cytometry
T3 construct: also called Human Delta1 Fc fusion protein; human delta-1 chain

[9] = molecular target: T4, cynomolgus monkey Delta1 Fc fusion protein (Delta1 clone not stated); test: as above
T4 construct: also called monkey (cyno) delta-1 chain; monkey Delta1 receptors

[10] = molecular target: T2, cynomolgus Gamma/Delta1A TCR-Fc fusion …; test: bead binding assay (TCR-Fc on streptavidin beads, IgG titrated, flow cytometry); apparent KD
[11] = molecular target: T3, human Delta1 TCR (Fc fusion protein, …); test: bead binding titration, flow cytometry (MFI against antibody concentration)
Cyno D2 [12] = molecular target: T1, Cyno D2; test: bead binding assay: biotinylated TCR-Fc on streptavidin beads, IgG titrated, flow cytometry
[13] = molecular target: T3, human Delta1 TCR (Fc fusion protein, …); test: SPR: biotinylated TCR on a neutravidin-loaded Avicap chip, IgG flowed (OneStep, Pioneer instrument)
Cyno D2 [14] = molecular target: T1, Cyno D2; test: bead binding assay: biotinylated TCR-Fc on streptavidin beads, IgG titrated, flow cytometry
[15] = molecular target: T2, cynomolgus Gamma/Delta1A TCR-Fc fusion …; test: as above; remark: listed apart in the source
Cyno D2 [16] = molecular target: T1, Cyno D2; test: as above
Cyno D2 [17] = molecular target: T1, Cyno D2; test: as above
[18] = molecular target: T2, cynomolgus Gamma/Delta1A TCR-Fc fusion …; test: as above; remark: listed apart in the source

B1: Delta1-19 (antibody, V domains shown)
VH: EVQLVESGGGLVQPGGSLRLSCAASGFTVSSSSIHWVRQAPGKGLEWVASIYSSSGYTYYADSVKGRFTISADTSKNTAYLQMNSLRAEDTAVYYCARDPGSYYWYYSGSAYEGYGLDYWGQGTLVTVSS
VL: DIQMTQSPSSLSASVGDRVTITCRASQSVSSAVAWYQQKPGKAPKLLIYAASSLQSGVPSRFSGSRSGTDFTLTISSLQPEDFATYYCQQMDRFYSLITFGQGTKVEIKR
notes: Tested in the human IgG format
binding result (Cyno D2 [1]): binds
Kd [2]: 0.25 nM

B2: Delta1-30 (antibody, V domains shown)
VH: EVQLVESGGGLVQPGGSLRLSCAASGFTVSSSSIHWVRQAPGKGLEWVASIYSSSGYTYYADSVKGRFTISADTSKNTAYLQMNSLRAEDTAVYYCARDPGSYYWYYSGSAYEGYGLDYWGQGTLVTVSS
VL: DIQMTQSPSSLSASVGDRVTITCRASQSVSSAVAWYQQKPGKAPKLLIYSASSLYSGVPSRFSGSRSGTDFTLTISSLQPEDFATYYCQQSGDDLITFGQGTKVEIKR
binding result (Cyno D2 [3]): no binding (tested: 100 nM)

B3: Delta1-40 (antibody, V domains shown)
VH: EVQLVESGGGLVQPGGSLRLSCAASGFTFTSSSIHWVRQAPGKGLEWVASIYSSSGYTYYADSVKGRFTISADTSKNTAYLQMNSLRAEDTAVYYCARDPGSYYWYYSGSAYEGYGLDYWGQGTLVTVSS
VL: DIQMTQSPSSLSASVGDRVTITCRASQSVSSAVAWYQQKPGKAPKLLIYAASSLQSGVPSRFSGSRSGTDFTLTISSLQPEDFATYYCQQQSKYPFLITFGQGTKVEIKR
notes: also called anti-Delta1-40
EC50 (read off the curve) [4]: ~2 nM

B4: Delta1-38 (antibody, V domains shown)
VH: EVQLVESGGGLVQPGGSLRLSCAASGFTFTSSDIHWVRQAPGKGLEWVASIYSSSGYTYYADSVKGRFTISADTSKNTAYLQMNSLRAEDTAVYYCARDPGSYYWYYSGSAYEGYGLDYWGQGTLVTVSS
VL: DIQMTQSPSSLSASVGDRVTITCRASQSVSSAVAWYQQKPGKAPKLLIYAASSLQSGVPSRFSGSRSGTDFTLTISSLQPEDFATYYCQQQSKYPFLITFGQGTKVEIKR
notes: also called anti-Delta1-38
EC50 (read off the curve) [5]: ~3 nM

B5: Delta1-37 (antibody, V domains shown)
VH: EVQLVESGGGLVQPGGSLRLSCAASGFTFTGSSIHWVRQAPGKGLEWVASIYSSSGYTYYADSVKGRFTISADTSKNTAYLQMNSLRAEDTAVYYCARDPGSYYWYYSGSAYEGYGLDYWGQGTLVTVSS
VL: DIQMTQSPSSLSASVGDRVTITCRASQSVSSAVAWYQQKPGKAPKLLIYAASSLQSGVPSRFSGSRSGTDFTLTISSLQPEDFATYYCQQQSKYPFLITFGQGTKVEIKR
notes: also called anti-Delta1-37
EC50 (read off the curve) [6]: ~2 nM

B6: Delta1-33 (antibody, V domains shown)
VH: EVQLVESGGGLVQPGGSLRLSCAASGFTFSSSSIHWVRQAPGKGLEWVASIYSSSGYTYYADSVKGRFTISADTSKNTAYLQMNSLRAEDTAVYYCARDPGSYYWYYSGSAYEGYGLDYWGQGTLVTVSS
VL: DIQMTQSPSSLSASVGDRVTITCRASQSVSSAVAWYQQKPGKAPKLLIYAASSLQSGVPSRFSGSRSGTDFTLTISSLQPEDFATYYCQQQSKYPFLITFGQGTKVEIKR
notes: also called anti-Delta1-33
EC50 (read off the curve) [7]: ~2 nM

B7: Delta1-41 (antibody, V domains shown)
VH: EVQLVESGGGLVQPGGSLRLSCAASGFTFSANDIHWVRQAPGKGLEWVASIYSSSGYTYYADSVKGRFTISADTSKNTAYLQMNSLRAEDTAVYYCARDPGSYYWYYSGSAYEGYGLDYWGQGTLVTVSS
VL: DIQMTQSPSSLSASVGDRVTITCRASQSVSSAVAWYQQKPGKAPKLLIYAASSLQSGVPSRFSGSRSGTDFTLTISSLQPEDFATYYCQQQSKYPFLITFGQGTKVEIKR
notes: Tested in the human IgG format; also called anti-Delta1-41
EC50 (read off the curve) [8]: 2 to 3 nM
EC50 (read off the curve) [9]: ~2 nM
Kd [10]: 2.7 nM
EC50 (read off the curve) [11]: ~1 nM

B8: Delta1-28 (antibody, V domains shown)
VH: EVQLVESGGGLVQPGGSLRLSCAASGFTVSSSSIHWVRQAPGKGLEWVASIYSSSGYTYYADSVKGRFTISADTSKNTAYLQMNSLRAEDTAVYYCARDPGSYYWYYSGSAYEGYGLDYWGQGTLVTVSS
VL: DIQMTQSPSSLSASVGDRVTITCRASQSVSSAVAWYQQKPGKAPKLLIYAASSLQSGVPSRFSGSRSGTDFTLTISSLQPEDFATYYCQQWMRSSSLFTFGQGTKVEIKR
notes: as for B1
Kd [2]: 0.36 nM
binding result (Cyno D2 [12]): no binding (tested: 100 nM)

B9: Delta1-17 (antibody, V domains shown)
VH: EVQLVESGGGLVQPGGSLRLSCAASGFTVSSSSIHWVRQAPGKGLEWVASIYSSSGYTYYADSVKGRFTISADTSKNTAYLQMNSLRAEDTAVYYCARDPGMYYWYYSGSAYEGYGLDYWGQGTLVTVSS
VL: DIQMTQSPSSLSASVGDRVTITCRASQSVSSAVAWYQQKPGKAPKLLIYSASSLYSGVPSRFSGSRSGTDFTLTISSLQPEDFATYYCQQSGDDLITFGQGTKVEIKR
notes: also called anti-Delta1-17; Delta-17
Kd [10]: 13.7 nM
Kd [13]: 4.6 nM
EC50 (read off the curve) [11]: ~0.5 nM
binding result (Cyno D2 [14]): no binding (tested: 100 nM)

B10: Delta1-36 (antibody, V domains shown)
VH: EVQLVESGGGLVQPGGSLRLSCAASGFTFSSNDIHWVRQAPGKGLEWVASIYSSSGYTYYADSVKGRFTISADTSKNTAYLQMNSLRAEDTAVYYCARDPGSYYWYYSGSAYEGYGLDYWGQGTLVTVSS
VL: DIQMTQSPSSLSASVGDRVTITCRASQSVSSAVAWYQQKPGKAPKLLIYAASSLQSGVPSRFSGSRSGTDFTLTISSLQPEDFATYYCQQQSKYPFLITFGQGTKVEIKR
notes: also called anti-Delta1-36
EC50 (read off the curve) [15]: ~3 nM

B11: Delta1-29 (antibody, V domains shown)
VH: EVQLVESGGGLVQPGGSLRLSCAASGFTVSSSSIHWVRQAPGKGLEWVASIYSSSGYTYYADSVKGRFTISADTSKNTAYLQMNSLRAEDTAVYYCARDPGSYYWYYSGSAYEGYGLDYWGQGTLVTVSS
VL: DIQMTQSPSSLSASVGDRVTITCRASQSVSSAVAWYQQKPGKAPKLLIYAASSLQSGVPSRFSGSRSGTDFTLTISSLQPEDFATYYCQQSGDDLITFGQGTKVEIKR
notes: as for B1
Kd [10]: 30.4 nM
binding result (Cyno D2 [16]): no binding (tested: 100 nM)

B12: Delta1-27 (antibody, V domains shown)
VH: EVQLVESGGGLVQPGGSLRLSCAASGFTVSSSSIHWVRQAPGKGLEWVASIYSSSGYTYYADSVKGRFTISADTSKNTAYLQMNSLRAEDTAVYYCARDPGSYYWYYSGSAYEGYGLDYWGQGTLVTVSS
VL: DIQMTQSPSSLSASVGDRVTITCRASQSVSSAVAWYQQKPGKAPKLLIYAASSLQSGVPSRFSGSRSGTDFTLTISSLQPEDFATYYCQQSSRNSKLITFGQGTKVEIKR
notes: as for B1
binding result (Cyno D2 [17]): no binding (tested: 100 nM)
Kd [10]: 0.78 nM

B13: Delta1-34 (antibody, V domains shown)
VH: EVQLVESGGGLVQPGGSLRLSCAASGFTFSGTDIHWVRQAPGKGLEWVASIYSSSGYTYYADSVKGRFTISADTSKNTAYLQMNSLRAEDTAVYYCARDPGSYYWYYSGSAYEGYGLDYWGQGTLVTVSS
VL: DIQMTQSPSSLSASVGDRVTITCRASQSVSSAVAWYQQKPGKAPKLLIYAASSLQSGVPSRFSGSRSGTDFTLTISSLQPEDFATYYCQQQSKYPFLITFGQGTKVEIKR
notes: also called anti-Delta1-34
EC50 (read off the curve) [18]: ~3 nM

Reference: US20250333506A1 (NEW YORK UNIVERSITY, published 2025)
